Assay results reported in article PMC5317272 (The Biochemical journal, 2016).

Experiments:
[1] = target: MARK1 kinase–UBA domain fragment (residues 45–371), hexahistidine tag intact (human, UniProt Q9P0L2 45-371); experiment: SPR
[2] = target: MARK1 kinase–UBA domain fragment (residues 45–371), tag-cleaved (human, UniProt Q9P0L2 45-371); experiment: SAXS
Chain of MARK1 kinase–UBA domain fragment (residues 45–371), tag-cleaved (Q9P0L2 45-371): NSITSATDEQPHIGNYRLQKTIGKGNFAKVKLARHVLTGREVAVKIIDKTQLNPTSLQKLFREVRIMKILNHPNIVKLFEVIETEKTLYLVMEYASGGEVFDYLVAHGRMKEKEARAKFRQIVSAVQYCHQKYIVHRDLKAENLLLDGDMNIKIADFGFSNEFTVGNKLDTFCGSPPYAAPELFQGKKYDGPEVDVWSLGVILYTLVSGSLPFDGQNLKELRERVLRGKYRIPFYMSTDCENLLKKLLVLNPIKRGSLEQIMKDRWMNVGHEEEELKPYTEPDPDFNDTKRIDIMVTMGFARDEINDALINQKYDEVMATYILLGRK

Chain of MARK1 kinase–UBA domain fragment (residues 45–371), hexahistidine tag intact (Q9P0L2 45-371): as above

Kd [1]: 73 µM
stoichiometry N [2]: 1
B1: MARK1 KA1 domain (residues 683–795) (domain or fragment)
chain: not shown
